Experimental data from the supplement of paper PMC12042874.
± gives the uncertainty stated by the source.

Assay: amyloid nucleation score (Sup35N fusion, yeast selection) (log enrichment); library NNK1; higher = more nucleation; inactive = no reads after selection
Summary of the method: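 Sup35N was fused to peptides of 20 random codons and expressed in psi-negative yeast, which were induced with 100 μM copper sulfate for 24 hours and then grown on medium lacking adenine and uracil for 7 days at 30°C. Plasmid inserts from input and output were sequenced on Illumina. The nucleation score is the DiMSum log enrichment of output over input reads, centred on the mode score of non-aggregating sequences. Sequences with under 100 input reads were left out, and random libraries had three technical output replicates.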

YEFVRRDHVPFRLGMSNPED and YELDWWSLLQE are within error of each other in amyloid nucleation score: 1.76 ± 0.53 for the first, 1.12 ± 0.4 for the second.

YFAAVIRRFGWTDIERSHQC and YFLTFRFCFSVNEVIDPWCA are within error of each other in amyloid nucleation score: 0.233 ± 0.79 for the first, -0.725 ± 1.1 for the second.

First: YFPIGYFVRKEDYGTCENDD
Second: YFQTRSAKRVCSNQIHVLRW
The amyloid nucleation score of the first is lower: 0.386 ± 0.31 for the first, 3.08 ± 0.12 for the second.

Going from YFRLHSFFFVESQGICVELR to YFRYWNSLIGIKDSD, the amyloid nucleation score rises from -0.251 ± 0.69 to 1.17 ± 0.39.

YFSDIAMWHSEIVR and YFSQPMLLRSSGRAVNSRMR are within error of each other in amyloid nucleation score: -0.605 ± 0.73 for the first, -1.66 ± 2.4 for the second.

Compared with YFVQYLYTLMLACYYWVISY, YGFCGLMHSNSIHYSNMQSR is higher in amyloid nucleation score: -1.61 ± 1.4 for the first, 0.685 ± 0.48 for the second.

YGFLVKS and YGGIVNDVFAGLQNIMGVAL are within error of each other in amyloid nucleation score: 0.1 ± 0.9 for the first, 0.334 ± 0.54 for the second.

YGKWWWVYRKTSVRRGDGAG and YGLATFMGKES are within error of each other in amyloid nucleation score: 0.49 ± 0.54 for the first, -0.104 ± 0.85 for the second.

YGLFWN and YGTRVFIGSIRYFRTEEAKI are within error of each other in amyloid nucleation score: -1.37 ± 1.5 for the first, 0.35 ± 0.72 for the second.

Going from YGYAAYVDMRSGL to YHNCDKDAANLFYCQ, the amyloid nucleation score rises from -0.257 ± 0.33 to 2.01 ± 0.47.

YHWILKSCLWMVWSSVYLPI and YIAQSFELKA are within error of each other in amyloid nucleation score: -0.663 ± 1.7 for the first, 0.23 ± 0.53 for the second.

First: YIDIVSQKC
Second: YIGTKCWNANHVVLLLFCRG
The amyloid nucleation score of the first is higher: 0.922 ± 0.62 for the first, -0.127 ± 0.32 for the second.

YIIYGWVEIF and YIKMIR are within error of each other in amyloid nucleation score: -1.14 ± 2.1 for the first, -0.759 ± 0.97 for the second.

Compared with YILPFFGRHYNRHGVFAGAM, YILSFFCVVEARDFFVDFEM is higher in amyloid nucleation score: -0.647 ± 0.9 for the first, 5 ± 0.062 for the second.

YILWNHNGLNGWGFAGITLF and YIPFGLIYHGKLG are within error of each other in amyloid nucleation score: -0.994 ± 0.51 for the first, -0.969 ± 2.1 for the second.

Compared with YIRGNFYSYQWGNCFMGNFC, YIRNTLTPEMVNWRDLRVPR is lower in amyloid nucleation score: 7.792 ± 0.05 for the first, -0.152 ± 0.73 for the second.

YISEM and YISLRFISYYYYVRGKFYMK are within error of each other in amyloid nucleation score: 0.544 ± 0.35 for the first, 0.672 ± 0.56 for the second.

YIWQGTRFQRGNRIYIGSQG and YKCMSKIFQFLVWAGEEWGL are within error of each other in amyloid nucleation score: 0.271 ± 0.54 for the first, -0.398 ± 1.1 for the second.

First: YKGRTPSSRLASLVCRGG
Second: YKHKTFIPRFTYNETVVYYV
The amyloid nucleation score of the first is lower: -0.198 ± 0.64 for the first, 4.85 ± 0.087 for the second.

Going from YKRCAPDRHYG to YKSISSDSAKWFVMGLNGLV, the amyloid nucleation score falls from 1.06 ± 0.58 to -1.6 ± 1.1.

First: YKSLMFWLVLVSVFMIRRNI
Second: YKTYMFYCTSFQSGPCSRLI
The amyloid nucleation score of the first is higher: 2.62 ± 0.26 for the first, -0.634 ± 0.35 for the second.

YLCKVRACTRKSQSLLCGAS and YLDDIH are within error of each other in amyloid nucleation score: 0.678 ± 0.65 for the first, -0.105 ± 0.44 for the second.

YLDVLGAFC and YLDWTVSALNWAMRMGSTVR are within error of each other in amyloid nucleation score: -0.214 ± 0.47 for the first, 0.381 ± 0.31 for the second.

YLGQWFNYTCYQWVMV and YLGRVSFIGHFVVTVSGSSQ are within error of each other in amyloid nucleation score: 1.37 ± 0.21 for the first, 1.1 ± 0.21 for the second.

YLIEFCPL and YLLCFCR are within error of each other in amyloid nucleation score: -0.225 ± 0.34 for the first, 0.354 ± 0.27 for the second.

YLLESSTIGIV and YLPYVNLAG are within error of each other in amyloid nucleation score: 0.474 ± 0.69 for the first, -1.07 ± 2.4 for the second.

YLSLTTEVWSNGHVWCGIGR and YLSRGNY are within error of each other in amyloid nucleation score: -0.043 ± 1.4 for the first, -0.245 ± 0.79 for the second.

First: YLTWQKTWRVRVSVLCTGTD
Second: YLTYAPQVWLSAGFNSNEGS
The amyloid nucleation score of the first is lower: 0.638 ± 0.58 for the first, 5.71 ± 0.078 for the second.

YLVSYMWVSLDDLSLYRANG and YLVWCIESITLGFMGELGAR are within error of each other in amyloid nucleation score: 0.585 ± 0.52 for the first, 0.199 ± 0.57 for the second.

Going from YMAFYPCWVHHKMIEKLCRC to YMASYGNLVGMFDAIQVLIV, the amyloid nucleation score rises from -0.076 ± 0.71 to 1.08 ± 0.31.

Compared with YMCGLSECAS, YMFVMEKARTSIYLSMRNYC is lower in amyloid nucleation score: 5 ± 0.062 for the first, -0.419 ± 0.39 for the second.

Compared with YMGGEWKD, YMNWFITGHDVGRYLIQFFV is lower in amyloid nucleation score: 6.801 ± 0.06 for the first, -1.74 ± 2.4 for the second.

YMPPNGKCSKVCLLRGGDYM and YNCYREGAWSITIRWIANRV are within error of each other in amyloid nucleation score: 0.719 ± 0.37 for the first, 0.124 ± 0.34 for the second.

First: YNGLGIEETNWAARGS
Second: YNIALCINSQVRESRRPVGV
The amyloid nucleation score of the first is lower: -1.12 ± 1.1 for the first, 5.24 ± 0.072 for the second.

YNLDSLLIWWVIDC and YNLYS are within error of each other in amyloid nucleation score: -0.22 ± 1.1 for the first, -0.626 ± 1.1 for the second.

First: YNPGG
Second: YNRDRECWRIS
The amyloid nucleation score of the first is lower: -0.248 ± 0.26 for the first, 1.17 ± 0.53 for the second.

YNSETSPVCYELTCESFCIV and YNTDWPLHLTADVGVFY are within error of each other in amyloid nucleation score: -1.23 ± 2.4 for the first, -0.088 ± 1.1 for the second.

YNWYPEWLCYIFRTKQVVGT and YNYVG are within error of each other in amyloid nucleation score: 0.382 ± 0.45 for the first, -1.29 ± 2.7 for the second.

YPIYIVWVFIVITICVANDS and YPSVADRHAILHR are within error of each other in amyloid nucleation score: -0.072 ± 0.31 for the first, 0.219 ± 0.74 for the second.

YPTPLQVFVRSRFDRRI and YPYNWSPYEAASIVAVQNYQ are within error of each other in amyloid nucleation score: -0.132 ± 0.26 for the first, -1.44 ± 1.5 for the second.

YQFGLEKSMLGRGY and YQLWPQASMKMCD are within error of each other in amyloid nucleation score: 0.36 ± 0.41 for the first, 0.258 ± 0.4 for the second.

YRAKSSEGL and YRHSDANKHLGGAIQF are within error of each other in amyloid nucleation score: -0.631 ± 0.71 for the first, -0.519 ± 0.53 for the second.

YRLKRINCGHVGHYMEDIRR and YRVFASNCEFYSRCKYLYLL are within error of each other in amyloid nucleation score: -0.099 ± 0.29 for the first, 0.029 ± 1.6 for the second.

Compared with YRWSVCCLLVMFWLYDGALL, YRWVFKCRCRSPGGESKSSR is higher in amyloid nucleation score: -0.156 ± 0.8 for the first, 5.9 ± 0.097 for the second.

YSCWFKHRTALPIGSEGMTR and YSHYNGTVAYRWEPQ are within error of each other in amyloid nucleation score: 0.708 ± 0.53 for the first, 0.901 ± 0.47 for the second.

YSIFILRSAWMMRRIEMSTA and YSLEFSSFMLFLTCLVSYNY are within error of each other in amyloid nucleation score: -0.252 ± 0.45 for the first, -0.457 ± 0.4 for the second.

YSLFAGIG and YSLWFLRYSRNGSMRDLLRF are within error of each other in amyloid nucleation score: 0.735 ± 0.85 for the first, -0.447 ± 0.39 for the second.

YSMIPKITSKP and YSNRWNYWVYVFGQVF are within error of each other in amyloid nucleation score: 0.028 ± 0.29 for the first, -0.437 ± 0.42 for the second.

YSNWGHVSRWFLRFIVVFFI and YSRWER are within error of each other in amyloid nucleation score: 0.459 ± 0.64 for the first, -0.565 ± 0.39 for the second.

Going from YSSERTLLALVGT to YSVDKIAYFGINKCRTVLWE, the amyloid nucleation score rises from -0.21 ± 0.51 to 1.09 ± 0.52.

Going from YSYVVCYNFYKRV to YTAMFCNSVLHADGLPQLMG, the amyloid nucleation score falls from 3.86 ± 0.14 to -0.033 ± 0.97.

Compared with YTASMTIFLDLLP, YTCCWTVG is higher in amyloid nucleation score: 2.07 ± 0.15 for the first, 4.18 ± 0.08 for the second.

First: YTGIPRSS
Second: YTIEYTSITVIVCGILYNT
The amyloid nucleation score of the first is lower: 0.203 ± 0.28 for the first, 6.932 ± 0.05 for the second.

YTLFWNVEGNLWQTPSVCNL and YTMMCGISQRQLTKRRPTLW are within error of each other in amyloid nucleation score: 0.141 ± 0.95 for the first, -0.205 ± 0.52 for the second.

YTSSFVKDGKHWSRSKTGVY and YTSTIKYLVYNN are within error of each other in amyloid nucleation score: -0.569 ± 0.73 for the first, -1.08 ± 0.94 for the second.

Going from YTWMSIEIY to YVASLYQYFYLLIKIDCVFF, the amyloid nucleation score falls from 1.71 ± 0.4 to -0.824 ± 0.97.

YVFNFLIMLLLGVA and YVHLYDDCTIGSTRAEGRGY are within error of each other in amyloid nucleation score: -0.665 ± 0.32 for the first, 0.777 ± 1.2 for the second.

YVIDGPSLSTCLVRV and YVLSLYTNGRSPSA are within error of each other in amyloid nucleation score: 0.839 ± 0.5 for the first, 0.203 ± 0.56 for the second.

YVLTCFAELGGRRGVS and YVRDGVPSWMQCYLRGSFGG are within error of each other in amyloid nucleation score: -0.531 ± 1.4 for the first, 0.208 ± 0.72 for the second.

Compared with YVVNYYNRQSIGCFVWTWRR, YVWVGADDFFYRGYVFSRLV is lower in amyloid nucleation score: 8.169 ± 0.05 for the first, -0.212 ± 1.4 for the second.

Compared with YVYNMFRL, YVYWR is lower in amyloid nucleation score: 2.88 ± 0.14 for the first, -1.82 ± 2.7 for the second.

YWFCNRIGIVGIVLSGYLCL and YWGYKTGQDCFSHSIRRRIL are within error of each other in amyloid nucleation score: -0.154 ± 0.26 for the first, -0.105 ± 0.85 for the second.

YWIDR and YWRCCQVCRLRMDPQYFPDG are within error of each other in amyloid nucleation score: -0.281 ± 0.42 for the first, -0.358 ± 0.69 for the second.

Going from YWVILFPITIWSVKTSVGNH to YYDSGVSPAVQSPECSTSGA, the amyloid nucleation score falls from 1.7 ± 0.31 to 0.186 ± 0.93.

Going from YYFKRNTCCAAVLKHPFPVS to YYFSVYQFCGGVFGSRDCLE, the amyloid nucleation score rises from 0.019 ± 0.99 to 6.711 ± 0.05.

Compared with YYIRNYVRFRRS, YYIVVCR is higher in amyloid nucleation score: -0.797 ± 0.48 for the first, 0.932 ± 0.97 for the second.

First: YYLQDDTWGLKFNPIVSTCF
Second: YYLSVNR
The amyloid nucleation score of the first is higher: 1.13 ± 0.54 for the first, -0.116 ± 0.67 for the second.

YYMTIFERFSLHFTMGLNLG and YYRGCTWLAYPEERTALPRM are within error of each other in amyloid nucleation score: 0.752 ± 0.56 for the first, 0.208 ± 0.27 for the second.

First: YYSVGYGTYLTEFLCGNLRG
Second: YYWIYVIPSIFSIF
The amyloid nucleation score of the first is lower: 0.989 ± 0.35 for the first, 5.5 ± 0.088 for the second.

Compared with YYWVFCFFA, YYYVWNFGGWIGFRNVVSIR is lower in amyloid nucleation score: 7.47 ± 0.079 for the first, 0.05 ± 0.98 for the second.

In the case of YLFFNLYCNYVLTAMLRACS, the amyloid nucleation score is reported as “inactive”.
With YLIRHIENGCSTQCRSTSWV the amyloid nucleation score was “inactive”.
For YNLDDILPLHIEGRFNRDIA, the amyloid nucleation score was “inactive”.
For YPNYFSVRFSNWLASTKFQI, the amyloid nucleation score was “inactive”.
With YRVLELFYFV the amyloid nucleation score was “inactive”.
In the case of YSPDLSRASFCFLWYISSS, the amyloid nucleation score is reported as “inactive”.
With YWCNYVIVMSCKWG the amyloid nucleation score was “inactive”.
For YYGNTRWLDYMPLL, the amyloid nucleation score was “inactive”.
